Experimental data taken from patent US20240010714A1 (MBRACE THERAPEUTICS, published 2024).
One block for each binder: values may come before it.

Assays:
Assay in all cases: alanine scan, high-throughput flow cytometry
[1] = biological target: T1, GRP78 alanine scan variant R261A (human, UniProt P11021 19-654)
T1 construct: Member of the GRP78 alanine scan library
Experimental: (§1) To characterize the binding properties of the antibodies described in Example 1 for GRP78, epitope mapping analysis was carried out by alanine scan mutagenesis. An alanine scan library of GRP78 was constructed. Each anti-GRP78 antibody was then screened for binding to each individual GRP78 variant, allowing identification of the target protein residues involved in antibody binding.
(§2) Binding of each test antibody to each GRP78 variant in the alanine scanning library was determined by high-throughput flow cytometry under high stringency conditions (e.g., increased pH, increased salinity, increased temperature and/or increased wash time). Also included in the experiment was a commercially-available monoclonal antibody, 1H11-1H7, which was verified to bind to WT GFR78 on cells and thus determined to be a suitable positive control under these conditions (Thermo Fisher Scientific, Waltham, MA). Antibody binding to each of the GRP78 variant as measured by the fluorescence signal (raw fluorescence data minus the background), was normalized to its binding to the wildtype (WT) GRP78. For each GRP78 variant, such normalized binding to the test antibodies was plotted relative to that to the control antibody.

[2] = biological target: T2, GRP78 alanine scan variant R279A (human, UniProt P11021 19-654)
T2 construct: Member of the GRP78 alanine scan library
Experimental: as §1, §2

[3] = biological target: T3, GRP78 alanine scan variant H265A (human, UniProt P11021 19-654)
T3 construct: Member of the GRP78 alanine scan library
Experimental: as §1, §2

[4] = biological target: T4, GRP78 alanine scan variant E329A (human, UniProt P11021 19-654)
T4 construct: Member of the GRP78 alanine scan library
Experimental: as §1, §2

T1 sequence (P11021 19-654 R261A limits assumed): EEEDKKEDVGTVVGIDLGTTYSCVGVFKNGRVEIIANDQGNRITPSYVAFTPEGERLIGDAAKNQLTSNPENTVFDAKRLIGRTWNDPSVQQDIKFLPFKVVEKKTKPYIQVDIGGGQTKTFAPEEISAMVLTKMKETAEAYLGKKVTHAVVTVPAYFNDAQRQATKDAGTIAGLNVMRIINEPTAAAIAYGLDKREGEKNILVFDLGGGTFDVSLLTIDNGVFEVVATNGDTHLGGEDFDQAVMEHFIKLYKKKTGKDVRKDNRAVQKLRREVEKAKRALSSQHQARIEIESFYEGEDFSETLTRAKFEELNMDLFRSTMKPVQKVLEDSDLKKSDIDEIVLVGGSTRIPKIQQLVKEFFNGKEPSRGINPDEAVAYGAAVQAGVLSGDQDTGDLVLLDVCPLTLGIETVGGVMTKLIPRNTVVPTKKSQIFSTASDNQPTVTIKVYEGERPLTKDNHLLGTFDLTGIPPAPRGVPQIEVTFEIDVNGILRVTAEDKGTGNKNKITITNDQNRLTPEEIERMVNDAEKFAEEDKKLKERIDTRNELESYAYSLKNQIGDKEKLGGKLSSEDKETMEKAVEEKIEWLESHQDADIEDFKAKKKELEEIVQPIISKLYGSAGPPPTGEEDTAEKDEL
T4 sequence (P11021 19-654 E329A limits assumed): as the sequence (P11021 19-654 R261A limits assumed) above, with A243R, E311A counted along it
T2 sequence (P11021 19-654 R279A limits assumed): as the sequence (P11021 19-654 R261A limits assumed) above, with A243R, R261A counted along it
T3 sequence (P11021 19-654 H265A limits assumed): as the sequence (P11021 19-654 R261A limits assumed) above, with A243R, H247A counted along it

binding normalized to wildtype (WT) GRP78 [1]: < 20%
binding normalized to wildtype (WT) GRP78 [2]: < 20%
B1: anti-GRP78 antibody clone F6 (antibody, IgG1, V domains shown)
VH: QVQLQQSGPGLVKPPQTLSLTCAISGDSVSSNSAAWNWIRQSPSRGLEWLGRTYYRSKWYNDYAVSVKSRITINPDTSKNQFSLQLNSVTPEDTAVYYCARDPYYYDSSGYYYFDAFDIWGQGTMVTVSS
VL: SYELTQPHSVSVAPGQTARITCGGDNIGSKSVHWYQQRPGQAPVLVVYDDSDRPSGIPERFSGSNSENTATLTISGVEAGDEADYYCQVWDSTSHHVVFGGGTKLTVL
notes: Fully human mAb formatted as full-length IgG1; also called F6 mAb; Anti-GRP78 (F6)

binding normalized to wildtype (WT) GRP78 [1]: < 20%
binding normalized to wildtype (WT) GRP78 [3]: < 20%
binding normalized to wildtype (WT) GRP78 [4]: < 20%
B2: anti-GRP78 antibody clone B4 (antibody, IgG1, V domains shown)
VH: QVRLQESGPGLVKPSQTLSLTCTVSGGSISSGGYYWSWIRQHPGKGLEWIGYIYYSGSTYYNPSLESRVTISVDTSKNQFSLKLSSVTAADTAVYYCARYSSIDAFEIWGQGTMVTVSS
VL: SYVLTQPPSVSVAPGKTATITCGGDDIGSKSVHWYQQKPGQAPVLVVYDDGDRPSGIPERFSGSNSGNTATLAISRVEAGDEADYYCQVWDSSSDQYVFGSGTKLTVL
notes: Fully human mAb formatted as full-length IgG1; also called B4 mAb
